Experimental data as given in patent US20040191815.

Tests used:
[1] = biological target: MafG homodimer (UniProt O15525); assay: SPR; details: pH 7.9; for Kd: 20 mM Hepes, 200 mM NaCl, 4 mM MgCl2, 1 mM EDTA, BSA
[2] = biological target: MafG homodimer (UniProt O15525); assay: EMSA; details: gel mobility shift assay comparison, probe details not given
[3] = 5' thiol on anchor strand (immobilized)

Chain of MafG homodimer (O15525 whole entry): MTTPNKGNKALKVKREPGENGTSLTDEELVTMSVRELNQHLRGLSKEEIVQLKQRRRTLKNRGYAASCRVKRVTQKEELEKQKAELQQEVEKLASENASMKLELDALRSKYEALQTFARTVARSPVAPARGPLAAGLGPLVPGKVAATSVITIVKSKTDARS

| Sequence | Kd [1, 3] [nM] | Kd [2, 3] [nM] | Ka ([1]; 5' thiol on anchor strand (immobilized), 10 mM Hepes, 300 mM NaCl, 4 mM Mg, 1 mM EDTA, ka 2.22e5 M-1s-1, kd 8.80e-4 s-1, Example 1 sequence printed only in figure) [M⁻¹] | Kd ([1]; 5' thiol on anchor strand (immobilized), SPR imaging) [nM] | Kd ([1]; 5' thiol on anchor strand (immobilized) [variable site 22-34 (TGCTGATTCAGCC), 5' thiol linker at 1 left out], listing SEQ 7 has 14 nt, Table 2 prints 13 nt) [nM] | Kd ([2]; 5' thiol on anchor strand (immobilized) [variable site 22-34 (TGCTGATTCAGCC), 5' thiol linker at 1 left out]) [nM] |
| --- | --- | --- | --- | --- | --- | --- |
| TTTTTTTTTTTTTTTCGGAATAGTTGACTCAGCATTACTC (double strand) [hNQO1m] | 8.58 | 273 | – | – | – | – |
| TTTTTTTTTTTTTTTCGGAATTGCTGACTCAGCATTACTC (double strand) [MARE 25] | – | 249 | 2.52e+08 | 2.5 | – | – |
| TTTTTTTTTTTTTTTCGGAATTGCTGATTCAGCCTTACTC (double strand) [hOPSIN] | – | – | – | – | 7.67 | 252 |
